The text below walks through data of publication PMC12521702, “Development of a trispecific fusion protein based on angiotensin-converting enzyme 2, glycoprotein 130, and tumor necrosis factor receptor 2 as a promising therapeutic for COVID-19” (Molecular Biomedicine, 2025).

One experiment addresses human Hyper-IL-6 (human, UniProt P08887 20-355). The experiment can be described thus: ELISA; plates coated with 2 μg/mL Hyper-IL-6-His in carbonate-bicarbonate buffer pH 9.6; serial dilutions of fusion proteins from 50 nM, 1 h at 37 °C; HRP anti-human IgG. The settings on record: both partners purified. A general note: An ELISA detects its analyte on a solid surface through an enzyme-linked reagent.

A further experiment has as its target T1, mouse Hyper-IL-6 (mouse, UniProt P22272;P08505).
T1 construct: also called murine Hyper-IL-6; Hyper-IL-6-His; not shown: His tag, C-terminal, kept
T1 chain: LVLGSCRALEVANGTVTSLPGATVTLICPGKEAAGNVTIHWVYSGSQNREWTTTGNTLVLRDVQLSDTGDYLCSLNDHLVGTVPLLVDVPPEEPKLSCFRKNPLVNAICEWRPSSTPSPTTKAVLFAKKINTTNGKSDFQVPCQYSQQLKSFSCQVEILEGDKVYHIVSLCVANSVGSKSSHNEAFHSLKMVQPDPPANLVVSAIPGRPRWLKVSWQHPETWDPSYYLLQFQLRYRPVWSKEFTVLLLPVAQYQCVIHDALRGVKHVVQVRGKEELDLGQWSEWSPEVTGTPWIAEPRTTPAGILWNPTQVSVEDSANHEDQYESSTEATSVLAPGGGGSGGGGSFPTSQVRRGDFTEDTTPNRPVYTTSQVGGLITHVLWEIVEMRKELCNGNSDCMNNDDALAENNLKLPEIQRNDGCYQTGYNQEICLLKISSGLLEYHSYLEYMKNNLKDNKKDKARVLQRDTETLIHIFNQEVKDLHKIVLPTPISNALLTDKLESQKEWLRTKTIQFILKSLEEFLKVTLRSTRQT
Described as above. Particulars: both partners purified.

B1: ACE2 (M)-Fc-hGP130 (Fc fusion)
chain: QSTIEEQAKFFLDYFNHEAEDLFYQSSLASWNYNTNITEENVQNMNNAGDKWSAFLKEQSTWAQMYPLQEIQNLTVKLQLQALQQNGSSVLSEDKSKRLNTILNTMSTIYSTGKVCNPDNPQECLLLEPGLNEIMANSLDYNERLWAWESWRSEVGKQLRPLYEEYVVLKNEMARANHYEDYGDYWRGDYEVNGVDGYDYSRGQLIEDVEHTFEEIKPLYEHLHAYVRAKLMNAYPSYISPIGCLPAHLLGDMWGQFWTNLYSLTVPFGQKPNIDVTDAMVDQAWDAQRIFKEAEKFFVSVGLPNMTQGFWEYSMLTDPGNVQKAVCHPTAWDLGKGDFRILMCTKVTMDDFLTAHHEMGHIQYDMAYAAQPFLLRNGANEGFHEAVGEIMSLSAATPKHLKSIGLLSPDFQEDNETEINFLLKQALTIVGTLPFTYMLEKWRWMVFKGEIPKDQWMKKWWEMKREIVGVVEPVPHDETYCDPASLFHVSNDYSFIRYYTRTLYQFQFQEALCQAAKHEGPLHKCDISNSTEAGQKLFNMLRLGKSEPWTLALENVVGAKNMNVRPLLNYFEPLFTWLKDQNKNSFVGWSTDWSPYADQSIKVRISLKSALGDKAYEWNDNEMYLFRSSVAYAMRQYFLKVKNQMILFGEEDVRVANLKPRISFNFFVTAPKNVSDIIPRTEVEKAIRMSRSRINDAFRLNDNSLEFLGIQPTLGPPNQPPVSGGGGSGGGGSGGGGSELLDPCGYISPESPVVQLHSNFTAVCVLKEKCMDYFHVNANYIVWKTNHFTIPKEQYTIINRTASSVTFTDIASLNIQLTCNILTFGQLEQNVYGITIISGLPPEKPKNLSCIVNEGKKMRCEWDGGRETHLETNFTLKSEWATHKFADCKAKRDTPTSCTVDYSTVYFVNIEVWVEAENALGKVTSDHINFDPVYKVKPNPPHNLSVINSEELSSILKLTWTNPSIKSVIILKYNIQYRTKDASTWSQIPPEDTASTRSSFTVQDLKPFTEYVFRIRCMKEDGKGYWSDWSEEASGITYEDRPSKAPSFWYKIDPSHTQGYRTVQLVWKTLPPFEANGKILDYEVTLTRWKSHLQNYTVNATKLTVNLTNDRYLATLTVRNLVGKSDAAVLTIPACDFQATHPVMDLKAFPKDNMLWVEWTTPRESVKKYILEWCVLSDKAPCITDWQQEDGTVHRTYLRGNLAESKCYLITVTPVYADGPGSPESIKAYLKQAPPSKGPTVRTKKVGKNEAVLEWDQLPVDVQNGFIRNYTIFYRTIIGNETAVNVDSSHTEYTLSSLTSDTLYMVRMAAYTDEGGKDGPEFTFTTPKFAQGEIE
A word on the EC50: it is the concentration giving half of the maximal effect. In the experiment with human Hyper-IL-6, B1 yielded an EC50 of 1.55 nM.

B2: ACE2 (M)-Fc-mGP130 (Fc fusion)
chain: QSTIEEQAKFFLDYFNHEAEDLFYQSSLASWNYNTNITEENVQNMNNAGDKWSAFLKEQSTWAQMYPLQEIQNLTVKLQLQALQQNGSSVLSEDKSKRLNTILNTMSTIYSTGKVCNPDNPQECLLLEPGLNEIMANSLDYNERLWAWESWRSEVGKQLRPLYEEYVVLKNEMARANHYEDYGDYWRGDYEVNGVDGYDYSRGQLIEDVEHTFEEIKPLYEHLHAYVRAKLMNAYPSYISPIGCLPAHLLGDMWGQFWTNLYSLTVPFGQKPNIDVTDAMVDQAWDAQRIFKEAEKFFVSVGLPNMTQGFWEYSMLTDPGNVQKAVCHPTAWDLGKGDFRILMCTKVTMDDFLTAHHEMGHIQYDMAYAAQPFLLRNGANEGFHEAVGEIMSLSAATPKHLKSIGLLSPDFQEDNETEINFLLKQALTIVGTLPFTYMLEKWRWMVFKGEIPKDQWMKKWWEMKREIVGVVEPVPHDETYCDPASLFHVSNDYSFIRYYTRTLYQFQFQEALCQAAKHEGPLHKCDISNSTEAGQKLFNMLRLGKSEPWTLALENVVGAKNMNVRPLLNYFEPLFTWLKDQNKNSFVGWSTDWSPYADQSIKVRISLKSALGDKAYEWNDNEMYLFRSSVAYAMRQYFLKVKNQMILFGEEDVRVANLKPRISFNFFVTAPKNVSDIIPRTEVEKAIRMSRSRINDAFRLNDNSLEFLGIQPTLGPPNQPPVSGGGGSGGGGSGGGGSQLLEPCGYIYPEFPVVQRGSNFTAICVLKEACLQHYYVNASYIVWKTNHAAVPREQVTVINRTTSSVTFTDVVLPSVQLTCNILSFGQIEQNVYGVTMLSGFPPDKPTNLTCIVNEGKNMLCQWDPGRETYLETNYTLKSEWATEKFPDCQSKHGTSCMVSYMPTYYVNIEVWVEAENALGKVSSESINFDPVDKVKPTPPYNLSVTNSEELSSILKLSWVSSGLGGLLDLKSDIQYRTKDASTWIQVPLEDTMSPRTSFTVQDLKPFTEYVFRIRSIKDSGKGYWSDWSEEASGTTYEDRPSRPPSFWYKTNPSHGQEYRSVRLIWKALPLSEANGKILDYEVILTQSKSVSQTYTVTGTELTVNLTNDRYVASLAARNKVGKSAAAVLTIPSPHVTAAYSVVNLKAFPKDNLLWVEWTPPPKPVSKYILEWCVLSENAPCVEDWQQEDATVNRTHLRGRLLESKCYQITVTPVFATGPGGSESLKAYLKQAAPARGPTVRTKKVGKNEAVLAWDQIPVDDQNGFIRNYSISYRTSVGKEMVVHVDSSHTEYTLSSLSSDTLYMVRMAAYTDEGGKDGPEFTFTTPKFAQGEIE
Regarding B2, the response in the experiment with mouse Hyper-IL-6 was half-maximal at 1.83 nM (EC50).
